According to the MegaScale stability set (Tsuboyama et al. 2023):

B1: EEHEE_rd3_1049 (parent)
chain: TTVKLGDIKVTFDNPEKAKKYAQKLAKIYQLTVHVHGDTIHVK

Variants of: B1
Assay: folding stability dG (cDNA display proteolysis); higher = more stable
Conditions: PBS, room temperature

Variant	folding stability dG [kcal/mol]
TTVKLGDSKVTFDNPEKAKKYAQKLAKIYQLTVHVHGDTIHVK [I8S]	1.37
TTVKLGDDKVTFDNPEKAKKYAQKLAKIYQLTVHVHGDTIHVK [I8D]	0.538
TTVKLGDPKVTFDNPEKAKKYAQKLAKIYQLTVHVHGDTIHVK [I8P]	0.237
TTVKLGDTKVTFDNPEKAKKYAQKLAKIYQLTVHVHGDTIHVK [I8T]	1.54
TTVKLGDHKVTFDNPEKAKKYAQKLAKIYQLTVHVHGDTIHVK [I8H]	2.62
TTVKLGDVKVTFDNPEKAKKYAQKLAKIYQLTVHVHGDTIHVK [I8V]	1.88
TTVKLGDMKVTFDNPEKAKKYAQKLAKIYQLTVHVHGDTIHVK [I8M]	2.1
TTVKLGDLKVTFDNPEKAKKYAQKLAKIYQLTVHVHGDTIHVK [I8L]	2.19
TTVKLGDYKVTFDNPEKAKKYAQKLAKIYQLTVHVHGDTIHVK [I8Y]	2.87
TTVKLGDFKVTFDNPEKAKKYAQKLAKIYQLTVHVHGDTIHVK [I8F]	2.95
TTVKLGDGKVTFDNPEKAKKYAQKLAKIYQLTVHVHGDTIHVK [I8G]	0.616
TTVKLGDWKVTFDNPEKAKKYAQKLAKIYQLTVHVHGDTIHVK [I8W]	3.22
TTVKLGDQKVTFDNPEKAKKYAQKLAKIYQLTVHVHGDTIHVK [I8Q]	1.28
TTVKLGDEKVTFDNPEKAKKYAQKLAKIYQLTVHVHGDTIHVK [I8E]	0.747
TTVKLGDAKVTFDNPEKAKKYAQKLAKIYQLTVHVHGDTIHVK [I8A]	1.18
TTVKLGDNKVTFDNPEKAKKYAQKLAKIYQLTVHVHGDTIHVK [I8N]	1.21
TTVKLGDKKVTFDNPEKAKKYAQKLAKIYQLTVHVHGDTIHVK [I8K]	1.83
TTVKLGDCKVTFDNPEKAKKYAQKLAKIYQLTVHVHGDTIHVK [I8C]	3.42
TTVKLGDRKVTFDNPEKAKKYAQKLAKIYQLTVHVHGDTIHVK [I8R]	1.94
TTVKLSDIKVTFDNPEKAKKYAQKLAKIYQLTVHVHGDTIHVK [G6S]	1.05
TTVKLYDIKVTFDNPEKAKKYAQKLAKIYQLTVHVHGDTIHVK [G6Y]	1.89
TTVKLNDIKVTFDNPEKAKKYAQKLAKIYQLTVHVHGDTIHVK [G6N]	1.45
TTVKLWDIKVTFDNPEKAKKYAQKLAKIYQLTVHVHGDTIHVK [G6W]	2.23
TTVKLRDIKVTFDNPEKAKKYAQKLAKIYQLTVHVHGDTIHVK [G6R]	1.76

Variant	folding stability dG [kcal/mol]
TTVKLKDIKVTFDNPEKAKKYAQKLAKIYQLTVHVHGDTIHVK [G6K]	1.41
TTVKLQDIKVTFDNPEKAKKYAQKLAKIYQLTVHVHGDTIHVK [G6Q]	1.12
TTVKLVDIKVTFDNPEKAKKYAQKLAKIYQLTVHVHGDTIHVK [G6V]	1.2
TTVKLADIKVTFDNPEKAKKYAQKLAKIYQLTVHVHGDTIHVK [G6A]	1.24
TTVKLLDIKVTFDNPEKAKKYAQKLAKIYQLTVHVHGDTIHVK [G6L]	1.61
TTVKLIDIKVTFDNPEKAKKYAQKLAKIYQLTVHVHGDTIHVK [G6I]	1.49
TTVKLTDIKVTFDNPEKAKKYAQKLAKIYQLTVHVHGDTIHVK [G6T]	0.948
TTVKLMDIKVTFDNPEKAKKYAQKLAKIYQLTVHVHGDTIHVK [G6M]	1.55
TTVKLCDIKVTFDNPEKAKKYAQKLAKIYQLTVHVHGDTIHVK [G6C]	3.09
TTVKLDDIKVTFDNPEKAKKYAQKLAKIYQLTVHVHGDTIHVK [G6D]	0.87
TTVKLEDIKVTFDNPEKAKKYAQKLAKIYQLTVHVHGDTIHVK [G6E]	0.771
TTVKLHDIKVTFDNPEKAKKYAQKLAKIYQLTVHVHGDTIHVK [G6H]	1.75
TTVKLFDIKVTFDNPEKAKKYAQKLAKIYQLTVHVHGDTIHVK [G6F]	2.02
TTVKLPDIKVTFDNPEKAKKYAQKLAKIYQLTVHVHGDTIHVK [G6P]	0.61
TTVKLGDIKVCFDNPEKAKKYAQKLAKIYQLTVHVHGDTIHVK [T11C]	2.98
TTVKLGDIKVDFDNPEKAKKYAQKLAKIYQLTVHVHGDTIHVK [T11D]	1.08
TTVKLGDIKVGFDNPEKAKKYAQKLAKIYQLTVHVHGDTIHVK [T11G]	0.999
TTVKLGDIKVEFDNPEKAKKYAQKLAKIYQLTVHVHGDTIHVK [T11E]	1.58
TTVKLGDIKVHFDNPEKAKKYAQKLAKIYQLTVHVHGDTIHVK [T11H]	2.31
TTVKLGDIKVFFDNPEKAKKYAQKLAKIYQLTVHVHGDTIHVK [T11F]	2.51
TTVKLGDIKVAFDNPEKAKKYAQKLAKIYQLTVHVHGDTIHVK [T11A]	1.48
TTVKLGDIFVTFDNPEKAKKYAQKLAKIYQLTVHVHGDTIHVK [K9F]	2.24
TTVKLGDIEVTFDNPEKAKKYAQKLAKIYQLTVHVHGDTIHVK [K9E]	2.27
TTVKLGDITVTFDNPEKAKKYAQKLAKIYQLTVHVHGDTIHVK [K9T]	2.42

Variant	folding stability dG [kcal/mol]
TTVKLGDIWVTFDNPEKAKKYAQKLAKIYQLTVHVHGDTIHVK [K9W]	2.47
TTVKLGDIDVTFDNPEKAKKYAQKLAKIYQLTVHVHGDTIHVK [K9D]	1.28
TTVKLGDIMVTFDNPEKAKKYAQKLAKIYQLTVHVHGDTIHVK [K9M]	2.34
TTVKLGDIVVTFDNPEKAKKYAQKLAKIYQLTVHVHGDTIHVK [K9V]	2.38
TTVKLGDIHVTFDNPEKAKKYAQKLAKIYQLTVHVHGDTIHVK [K9H]	2.06
TTVKLGDILVTFDNPEKAKKYAQKLAKIYQLTVHVHGDTIHVK [K9L]	2.39
TTVKLGDIQVTFDNPEKAKKYAQKLAKIYQLTVHVHGDTIHVK [K9Q]	2.06
TTVKLGDIYVTFDNPEKAKKYAQKLAKIYQLTVHVHGDTIHVK [K9Y]	2.42
TTVKLGDINVTFDNPEKAKKYAQKLAKIYQLTVHVHGDTIHVK [K9N]	1.76
TTVKLGDIPVTFDNPEKAKKYAQKLAKIYQLTVHVHGDTIHVK [K9P]	0.591
TTVKLGDICVTFDNPEKAKKYAQKLAKIYQLTVHVHGDTIHVK [K9C]	3.33
TTVKLGDIAVTFDNPEKAKKYAQKLAKIYQLTVHVHGDTIHVK [K9A]	2.06
TTVKLGDIRVTFDNPEKAKKYAQKLAKIYQLTVHVHGDTIHVK [K9R]	2.23
TTVKLGDIGVTFDNPEKAKKYAQKLAKIYQLTVHVHGDTIHVK [K9G]	1.25
TTVKLGDISVTFDNPEKAKKYAQKLAKIYQLTVHVHGDTIHVK [K9S]	2.43
TTVKLGDIIVTFDNPEKAKKYAQKLAKIYQLTVHVHGDTIHVK [K9I]	2.46
TTVKLGDIKQTFDNPEKAKKYAQKLAKIYQLTVHVHGDTIHVK [V10Q]	0.914
TTVKLGDIKLTFDNPEKAKKYAQKLAKIYQLTVHVHGDTIHVK [V10L]	2.08
TTVKLGDIKGTFDNPEKAKKYAQKLAKIYQLTVHVHGDTIHVK [V10G]	0.275
TTVKLGDIKPTFDNPEKAKKYAQKLAKIYQLTVHVHGDTIHVK [V10P]	0.26
TTVKLGDIKCTFDNPEKAKKYAQKLAKIYQLTVHVHGDTIHVK [V10C]	2.92
TTVKLGDIKWTFDNPEKAKKYAQKLAKIYQLTVHVHGDTIHVK [V10W]	3.21
TTVKLGDIKTTFDNPEKAKKYAQKLAKIYQLTVHVHGDTIHVK [V10T]	1.12
TTVKLGDIKETFDNPEKAKKYAQKLAKIYQLTVHVHGDTIHVK [V10E]	0.411

Variant	folding stability dG [kcal/mol]
TTVKLGDIKATFDNPEKAKKYAQKLAKIYQLTVHVHGDTIHVK [V10A]	0.985
TTVKLGDIKSTFDNPEKAKKYAQKLAKIYQLTVHVHGDTIHVK [V10S]	0.658
TTVKLGDIKITFDNPEKAKKYAQKLAKIYQLTVHVHGDTIHVK [V10I]	2.48
TTVKLGDIKYTFDNPEKAKKYAQKLAKIYQLTVHVHGDTIHVK [V10Y]	1.95
TTVKLGDIKNTFDNPEKAKKYAQKLAKIYQLTVHVHGDTIHVK [V10N]	0.575
TTVKLGDIKFTFDNPEKAKKYAQKLAKIYQLTVHVHGDTIHVK [V10F]	2.35
TTVKLGDIKDTFDNPEKAKKYAQKLAKIYQLTVHVHGDTIHVK [V10D]	0.272
TTVKLGDIKKTFDNPEKAKKYAQKLAKIYQLTVHVHGDTIHVK [V10K]	1.72
TTVKLGDIKRTFDNPEKAKKYAQKLAKIYQLTVHVHGDTIHVK [V10R]	1.79
TTVKLGDIKMTFDNPEKAKKYAQKLAKIYQLTVHVHGDTIHVK [V10M]	2
TTVKLGDIKHTFDNPEKAKKYAQKLAKIYQLTVHVHGDTIHVK [V10H]	1.06
TTVKLGEIKVTFDNPEKAKKYAQKLAKIYQLTVHVHGDTIHVK [D7E]	1.97
TTVKLGTIKVTFDNPEKAKKYAQKLAKIYQLTVHVHGDTIHVK [D7T]	2.56
TTVKLGGIKVTFDNPEKAKKYAQKLAKIYQLTVHVHGDTIHVK [D7G]	2.39
TTVKLGYIKVTFDNPEKAKKYAQKLAKIYQLTVHVHGDTIHVK [D7Y]	2.94
TTVKLGKIKVTFDNPEKAKKYAQKLAKIYQLTVHVHGDTIHVK [D7K]	3.17
TTVKLGCIKVTFDNPEKAKKYAQKLAKIYQLTVHVHGDTIHVK [D7C]	3.56
TTVKLGHIKVTFDNPEKAKKYAQKLAKIYQLTVHVHGDTIHVK [D7H]	2.79
TTVKLGNIKVTFDNPEKAKKYAQKLAKIYQLTVHVHGDTIHVK [D7N]	2.85
TTVKLGMIKVTFDNPEKAKKYAQKLAKIYQLTVHVHGDTIHVK [D7M]	2.63
TTVKLGIIKVTFDNPEKAKKYAQKLAKIYQLTVHVHGDTIHVK [D7I]	2.64
TTVKLGAIKVTFDNPEKAKKYAQKLAKIYQLTVHVHGDTIHVK [D7A]	2.6
TTVKLGSIKVTFDNPEKAKKYAQKLAKIYQLTVHVHGDTIHVK [D7S]	2.73
TTVKLGVIKVTFDNPEKAKKYAQKLAKIYQLTVHVHGDTIHVK [D7V]	2.52

Variant	folding stability dG [kcal/mol]
TTVKLGPIKVTFDNPEKAKKYAQKLAKIYQLTVHVHGDTIHVK [D7P]	2.31
TTVKLGRIKVTFDNPEKAKKYAQKLAKIYQLTVHVHGDTIHVK [D7R]	3.21
TTVKLGWIKVTFDNPEKAKKYAQKLAKIYQLTVHVHGDTIHVK [D7W]	3.24
TTVKLGQIKVTFDNPEKAKKYAQKLAKIYQLTVHVHGDTIHVK [D7Q]	2.5
TTVKLGFIKVTFDNPEKAKKYAQKLAKIYQLTVHVHGDTIHVK [D7F]	2.83
TTVKLGLIKVTFDNPEKAKKYAQKLAKIYQLTVHVHGDTIHVK [D7L]	2.69
TTVKVGDIKVTFDNPEKAKKYAQKLAKIYQLTVHVHGDTIHVK [L5V]	2.08
TTVKIGDIKVTFDNPEKAKKYAQKLAKIYQLTVHVHGDTIHVK [L5I]	2.79
TTVKPGDIKVTFDNPEKAKKYAQKLAKIYQLTVHVHGDTIHVK [L5P]	0.495
TTVKFGDIKVTFDNPEKAKKYAQKLAKIYQLTVHVHGDTIHVK [L5F]	2.71
TTVKKGDIKVTFDNPEKAKKYAQKLAKIYQLTVHVHGDTIHVK [L5K]	0.76
TTVKEGDIKVTFDNPEKAKKYAQKLAKIYQLTVHVHGDTIHVK [L5E]	0.422
TTVKSGDIKVTFDNPEKAKKYAQKLAKIYQLTVHVHGDTIHVK [L5S]	0.683
TTVKWGDIKVTFDNPEKAKKYAQKLAKIYQLTVHVHGDTIHVK [L5W]	2.83
TTVKGGDIKVTFDNPEKAKKYAQKLAKIYQLTVHVHGDTIHVK [L5G]	0.536
TTVKHGDIKVTFDNPEKAKKYAQKLAKIYQLTVHVHGDTIHVK [L5H]	1.59
TTVKMGDIKVTFDNPEKAKKYAQKLAKIYQLTVHVHGDTIHVK [L5M]	2.24
TTVKNGDIKVTFDNPEKAKKYAQKLAKIYQLTVHVHGDTIHVK [L5N]	0.735
TTVKRGDIKVTFDNPEKAKKYAQKLAKIYQLTVHVHGDTIHVK [L5R]	0.884
TTVKTGDIKVTFDNPEKAKKYAQKLAKIYQLTVHVHGDTIHVK [L5T]	0.739
TTVKQGDIKVTFDNPEKAKKYAQKLAKIYQLTVHVHGDTIHVK [L5Q]	0.604
TTVKYGDIKVTFDNPEKAKKYAQKLAKIYQLTVHVHGDTIHVK [L5Y]	2.12
